Measured values taken from patent publication US20210261685A1.

Biological target: human MerTK endogenously expressed on cells (SK-MEL-5 cells; human macrophages) (human) (UniProt Q12866)
Experiment: cell-based or functional assay

Chain of human MerTK endogenously expressed on cells (SK-MEL-5 cells; human macrophages) (human) (Q12866 21-999 limits assumed): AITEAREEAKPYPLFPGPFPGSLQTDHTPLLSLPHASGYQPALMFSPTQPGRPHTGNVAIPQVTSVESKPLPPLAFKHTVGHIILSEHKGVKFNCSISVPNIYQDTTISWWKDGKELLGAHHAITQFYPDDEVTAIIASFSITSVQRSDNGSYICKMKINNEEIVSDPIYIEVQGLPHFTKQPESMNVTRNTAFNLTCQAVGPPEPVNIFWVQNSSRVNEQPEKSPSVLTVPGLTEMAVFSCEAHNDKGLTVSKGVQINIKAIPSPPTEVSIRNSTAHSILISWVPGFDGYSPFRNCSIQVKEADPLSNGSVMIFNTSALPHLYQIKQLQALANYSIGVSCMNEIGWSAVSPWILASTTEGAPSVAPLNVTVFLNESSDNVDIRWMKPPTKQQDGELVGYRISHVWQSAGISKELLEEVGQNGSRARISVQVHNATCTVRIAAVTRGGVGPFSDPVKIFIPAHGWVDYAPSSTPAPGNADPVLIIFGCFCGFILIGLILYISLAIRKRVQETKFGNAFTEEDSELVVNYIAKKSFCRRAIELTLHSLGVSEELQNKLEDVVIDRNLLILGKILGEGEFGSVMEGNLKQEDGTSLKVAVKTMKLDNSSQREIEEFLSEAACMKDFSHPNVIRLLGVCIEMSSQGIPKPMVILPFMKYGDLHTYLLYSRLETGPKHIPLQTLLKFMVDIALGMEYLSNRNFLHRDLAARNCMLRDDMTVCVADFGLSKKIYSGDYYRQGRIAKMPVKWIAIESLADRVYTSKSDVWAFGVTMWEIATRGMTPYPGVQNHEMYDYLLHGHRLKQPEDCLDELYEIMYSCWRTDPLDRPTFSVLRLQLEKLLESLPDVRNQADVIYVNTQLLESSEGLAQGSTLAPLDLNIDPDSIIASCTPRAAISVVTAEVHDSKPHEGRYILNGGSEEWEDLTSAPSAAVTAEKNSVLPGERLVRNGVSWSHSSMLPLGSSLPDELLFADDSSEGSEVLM

Gas6-mediated pAKT activity, average IC50, human M2c macrophages: 0.531 nM
B1: MTK-22 (antibody, human IgG1, V domains shown)
VH: QVQLQQPGADLVEPGASVKLSCKASGYTFTSYWMHWVKQRPGQGLEWIGEIDPSDSSSNYNQKFKGKATLTVDKSSSTAYMHLNSLTSEDSAVYYCARRYYYGSLYFDNWGQGTTLTVSS
VL: DVVMTQSHKFMSTSVGDRVSITCKASQDVGTAIAWYQQKPGQSPKLLIYWASTRHTGVPDRFTGSRSGTVFTLTISNVQSEDLADYFCQQYTSYPLTFGSGTKLEIK
